In patent publication US9809808B2, “Antimicrobial agents” (KATHOLIEKE UNIVERSITEIT LEUVEN K.U. LEUVEN R&D, priority 2008, dated 2017):
Where two headings read alike, the source gives them in different places.

B1: P2gp09: SEQ ID NO: 9: unmodified globular endolysin of 165 amino acid residues originating from Escherichia coli phage P2 (protein)
chain: MPVINTHQNIAAFLDMLAVSEGTANHPLTKNRGYDVIVTGLDGKPEIFTDYSDHPFAHGRPAKVFNRRGEKSTASGRYQQLYLFWPHYRKQLALPDFSPLSQDRLAIQLIRERGALDDIRAGRIERAISRCRNIWASLPGAGYGQREHSLEKLVTVWRTAGGVPA
modifications: P2gp09
B2: PKP2gp09: SEQ ID NO: 57: P2gp09 (SEQ ID NO: 9) with N-terminal peptide stretch KRKKRKKRK (SEQ ID NO: 11) (protein)
chain: MGSKRKKRKKRKPVINTHQNIAAFLDMLAVSEGTANHPLTKNRGYDVIVTGLDGKPEIFTDYSDHPFAHGRPAKVFNRRGEKSTASGRYQQLYLFWPHYRKQLALPDFSPLSQDRLAIQLIRERGALDDIRAGRIERAISRCRNIWASLPGAGYGQREHSLEKLVTVWRTAGGVPA
modifications: PKP2gp09

Assays:
Details in all cases: for relative inactivation in logarithmic units (log10N0/Ni): 30 minutes
Escherichia coli WK6 = assay: Antibacterial activity of P2gp09 and PKP2gp09 with and without EDTA (30 minutes, colony count); assay type: cell-based
Description: To determine the anti-Gram-negative spectrum of the PK2gp09 endolysin according to SEQ ID NO: 57, a combination of 1.315 μM PK2gp09 endolysin and 0,5 mM EDTA was tested on the clinical P. aeruginosa strains PAO1p and Br667 and on Escherichia coli WK6 (see Table 9). Exponential growing bacterial cells (OD600 nm of 0.6) were 100-fold diluted to a final density of about 10^6/ml of each strain was incubated for 30 minutes at room temperature without shaking with unmodified endolysin P2gp09 (SEQ ID NO: 9) and modified endolysin PKP2gp09 (SEQ ID NO: 57) each in combination without and with 0.5 mM EDTA. […] As a control each strain was also incubated for 30 minutes with 0.5 mM EDTA (in same buffer as outlined above) but no endolysin. After incubation cell suspensions were diluted three times (respectively 10^5-10^4-10^3 cells/ml) and 100 μl of each dilution was plated out on LB-medium.

P. putida G1 = assay: as above; assay type: cell-based, Pseudomonas putida
[1] = tested on: Burkholderia pseudomallei; assay type: cell-based
P. aeruginosa Br667 = assay: Antibacterial activity of P2gp09 and PKP2gp09 with and without EDTA (30 minutes, colony count); assay type: cell-based, Pseudomonas aeruginosa
[2] = 1.315 μM endolysin + 0.5 mM EDTA

Molecule | relative inactivation in logarithmic units (log10N0/Ni) (Escherichia coli WK6; [2]) | relative inactivation in logarithmic units (log10N0/Ni) (Escherichia coli WK6; 1.315 μM endolysin, no EDTA) | relative inactivation in logarithmic units (log10N0/Ni) (P. putida G1; [2]) | relative inactivation in logarithmic units (log10N0/Ni) (P. putida G1; 1.315 μM endolysin, no EDTA) | relative inactivation in logarithmic units (log10N0/Ni) [1, 2] | relative inactivation in logarithmic units (log10N0/Ni) ([1]; 1.315 μM endolysin, no EDTA) | relative inactivation in logarithmic units (log10N0/Ni) (P. aeruginosa Br667; [2]) | relative inactivation in logarithmic units (log10N0/Ni) (P. aeruginosa Br667; 1.315 μM endolysin, no EDTA) | Δ, difference of activity between P2gp09 and PKP2gp09 samples (Escherichia coli WK6; 1.315 μM + 0.5 mM EDTA) [logarithmic units] | Δ, difference of activity between P2gp09 and PKP2gp09 samples (Escherichia coli WK6; 1.315 μM, no EDTA) [logarithmic units] | Δ, difference of activity between P2gp09 and PKP2gp09 samples (P. putida G1; 1.315 μM + 0.5 mM EDTA) [logarithmic units] | Δ, difference of activity between P2gp09 and PKP2gp09 samples (P. putida G1; 1.315 μM, no EDTA) [logarithmic units] | Δ, difference of activity between P2gp09 and PKP2gp09 samples ([1]; 1.315 μM + 0.5 mM EDTA) [logarithmic units] | Δ, difference of activity between P2gp09 and PKP2gp09 samples ([1]; 1.315 μM, no EDTA) [logarithmic units] | Δ, difference of activity between P2gp09 and PKP2gp09 samples (P. aeruginosa Br667; 1.315 μM + 0.5 mM EDTA) [logarithmic units] | Δ, difference of activity between P2gp09 and PKP2gp09 samples (P. aeruginosa Br667; 1.315 μM, no EDTA) [logarithmic units]
B1 | 0.784 logarithmic units | 0.751 logarithmic units | 3.919 logarithmic units | 0.419 logarithmic units | 3.8909 logarithmic units | 0.769 logarithmic units | 0.582 logarithmic units | 0.246 logarithmic units | – | – | – | – | – | – | – | –
B2 | 1.545 +/− 0.102 logarithmic units | 1.104 +/− 0.039 logarithmic units | >4,386 logarithmic units | 1.014 +/− 0.139 logarithmic units | 4.255 +/− 0.001 logarithmic units | 1.163 +/− 0.073 logarithmic units | 0.952 +/− 0.213 logarithmic units | 0.300 +/− 0.062 logarithmic units | 0.749 | 0.353 | >0.467 | 0.595 | 0.365 | 0.394 | 0.370 | 0.054
